{"source": "patent US12359240B2", "about": "“Membrane protease-based methods for detection of bacteria” (Nanyang Technological University, priority 2019, dated 2025)", "key": {"OmpT and PgtE": {"test_system": "OmpT and PgtE", "test": "Substrate preference of OmpT versus PgtE, change in PT6 fluorescence with time", "format": "biochemical, E. coli K-12; Salmonella typhi", "settings": "FIG. 15"}, "E. coli K12": {"test_system": "E. coli K12", "test": "Detection of E. coli in contaminated water with the LL37 peptides and PT6", "format": "cell-based, Escherichia coli", "settings": "10^8 CFU/mL E. coli K12, FIG. 14A"}, "OmpT [1]": {"molecular_target": "T1, OmpT (Escherichia coli, UniProt P09169)", "T1 sequence (P09169 21-317)": "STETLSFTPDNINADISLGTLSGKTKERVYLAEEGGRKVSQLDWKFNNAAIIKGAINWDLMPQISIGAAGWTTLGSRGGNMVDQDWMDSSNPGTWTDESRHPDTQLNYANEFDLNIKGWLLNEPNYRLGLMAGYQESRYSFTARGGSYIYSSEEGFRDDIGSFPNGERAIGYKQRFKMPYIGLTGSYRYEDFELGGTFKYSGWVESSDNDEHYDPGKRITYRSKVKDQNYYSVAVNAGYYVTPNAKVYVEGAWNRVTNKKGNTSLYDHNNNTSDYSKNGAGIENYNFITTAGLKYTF", "settings": "for rate of reduction in PT6 fluorescence (cleavage by OmpT) relative to the peptide of Examples 1-5: interpreted from the slope"}, "OmpT [2]": {"molecular_target": "T1, OmpT", "description": "This OmpT was obtained by overexpressing the protein in E. coli BL21 as inclusion bodies using a protocol reported earlier [Kramer, R. A. Zandwijken, D. Egmond, M. R. Dekker, N. Eur. J. Biochem. 267, 885-893 (2000)]. Briefly, the inclusion bodies were unfolded and solubilized using 8 M urea and subsequently refolded in the presence of DodMe2NPrSO3, a zwitterionic detergent. The refolded OmpT was purified and stored at 4° C. for further use. […] To this 100 μL reaction mixture, 10 μL of PTAA stock solution (0.1 mg/mL) was added. Fluorescence measurements and absorbance scans were collected as mentioned before. The raw fluorescence (F.) intensity scans are either plotted as is or reported as % fluorescence increase. The following formula was applied to convert fluorescence intensity (a.u.) to % fluorescence increase: […]"}, "OmpT [3]": {"molecular_target": "T1, OmpT", "remark": "listed apart in the source"}, "[4]": {"test": "PTAA-peptide fluorescence and optical absorption measurements (no enzyme)", "settings": "550 nm; peptide's highest concentration", "description": "All PTAA and LL37FRRY mixing were carried out in the reaction buffer. All optical absorption and fluorescence measurements were carried out on 100 μL samples in a flat bottom 96 well plate using a TECAN Infinite® 200 PRO(Switzerland). Optical absorption measurements were collected from 330-650 nm. […] To understand the effect of intact and cleaved fragments on the fluorescence intensity and optical absorption of PTAA, LL37FRRV, frag1LL37FRRV (SEQ ID NO: 47) and frag2LL37FRRV (SEQ ID NO: 48) were added in different ratios (10:0, 8:2, 6:4, 4:6, 2:8, 0:10) while keeping the total peptide concentration at 50 μM. The fluorescence intensity and optical absorption spectra were measured as mentioned before."}, "[5]": {"test": "PT6-peptide fluorescence measurements (no enzyme)", "settings": "FIG. 18", "description": "Stock solutions of PT6 was prepared in a reaction buffer such that the absorbance at λmax was ˜1.4. All absorbance and fluorescence measurements were carried out on 100 μL samples in a flat bottom 96 well plate using a TECAN Infinite® 200 PRO (Switzerland). Fluorescence scans were collected by exciting the samples at 495 nm, further recording their emission spectrum from 525-750 nm. […] In order to study the effect of cysteine on PT6 fluorescence, different concentrations (150-6.25 μM) of the two peptides (Table 12) were prepared from the stock and mixed with PT6 such that the final concentration of the PT is a 10 time dilution of the stock. The fluorescence intensities were measured as described above."}, "OmpT [6]": {"molecular_target": "T1, OmpT", "settings": "20 μM peptide, OmpT 6 hours, FIG. 17"}}, "note": "Where no end group is shown, it is not given here.", "data": [{"substance": "C L L G D F A R R A K E K I G (CLLGDFARRAKEKIG; LL37ARRA)", "values": [{"measurement": "substrate preference of OmpT compared with PgtE", "setting": "OmpT and PgtE", "value": "OmpT exhibits a higher preference"}]}, {"substance": "C L L G D F F R R A K E K I G (CLLGDFFRRAKEKIG; LL37FRRA)", "values": [{"measurement": "rate of reduction in PT6 fluorescence", "setting": "E. coli K12", "value": "faster rate"}, {"measurement": "rate of reduction in PT6 fluorescence (cleavage by OmpT) relative to the peptide of Examples 1-5", "setting": "OmpT [1]", "value": "faster rate"}]}, {"substance": "C L L G D F F R R V K E K I G (CLLGDFFRRVKEKIG; LL37FRRV)", "values": [{"measurement": "increase in PTAA fluorescence intensity when mixed with OmpT-cleaved peptide fragments", "setting": "OmpT [2]; peptide treated with OmpT in detergent micelles", "value": "no more than 20%"}, {"measurement": "times better then original peptide (substrate specific for OmpT)", "setting": "OmpT [3]; SAMDI-MS peptide array, versus original peptide", "value": 400, "unit": "times"}]}, {"substance": "C L L G D F F R R Y K E K I G (CLLGDFFRRYKEKIG; LL37FRRY)", "values": [{"measurement": "overall increase in PTAA's fluorescence intensity upon peptide addition", "setting": "[4]", "value": "~200", "unit": "%"}, {"measurement": "PTAA's fluorescence intensity less than with peptide in the absence of OmpT", "setting": "OmpT [2]; 42 nM OmpT, 2 hours, 50 μM peptide", "value": "~175", "unit": "%"}, {"measurement": "PT6 fluorescence intensity, peptide with versus without terminal cysteine", "setting": "[5]", "value": "much higher fluorescence intensity"}, {"measurement": "rate of reduction in PT6 fluorescence", "setting": "E. coli K12", "value": "faster rate"}, {"measurement": "incubation time with OmpT of the sample showing colour change from bronze to purple", "setting": "OmpT [1]; PT6, normal visible light, FIG. 13B top", "value": 70, "unit": "min"}, {"measurement": "rate of reduction in PT6 fluorescence (cleavage by OmpT) relative to the peptide of Examples 1-5", "setting": "OmpT [1]", "value": "faster rate"}, {"measurement": "difference in PTAA fluorescence intensity between intact peptide and peptide digested with OmpT", "setting": "OmpT [6]", "value": "largest difference"}]}, {"substance": "C L L G D F Y R R A K E K I G (CLLGDFYRRAKEKIG; LL37YRRA)", "values": [{"measurement": "rate of reduction in PT6 fluorescence", "setting": "E. coli K12", "value": "faster rate"}, {"measurement": "rate of reduction in PT6 fluorescence (cleavage by OmpT) relative to the peptide of Examples 1-5", "setting": "OmpT [1]", "value": "faster rate"}]}, {"substance": "FRRV: library peptide of type AcGX1RRX2GC carrying the tetrapeptide sequence FRRV at the cleavage site (Ac-GFRRVGC)", "values": [{"measurement": "cleavage by OmpT of library peptide AcGX1RRX2GC", "setting": "OmpT [3]; tetrapeptide sequence at the cleavage site", "value": "efficiently cleaved"}]}]}
